Results taken from the Human Domainome abundance scans (Beltran et al. 2025).
± gives the uncertainty stated by the source.

B1: Tyrosine-protein kinase BTK, residues 215 to 273; numbered along this chain, Q06187 (parent)
chain: ELKKVVALYDYMPMNANDLQLRKGDEYFILEESNLPWWRARDKNGQEGYIPSNYVTEAE

Variants of: B1
Experiment: abundance fitness (aPCA) (normalised: wild type 0, dead -1); higher = more abundant; growth selection in yeast, the domain comes from the species named
Settings: Homo sapiens

Row | Variant | abundance fitness
1 | V55E | -0.617 ± 0.07
2 | L2S | -0.075 ± 0.04
3 | K4G | -0.357 ± 0.035
4 | K43I | 0.049 ± 0.066
5 | G48P | -0.68 ± 0.088
6 | F28W | 0.032 ± 0.049
7 | E47H | -0.219 ± 0.07
8 | I50R | -1.01 ± 0.091
9 | Q46W | -0.161 ± 0.045
10 | N44R | -0.067 ± 0.043
11 | A16E | 0.013 ± 0.042
12 | N44D | -0.01 ± 0.066
13 | E57I | -0.133 ± 0.13
14 | G45S | -0.125 ± 0.04
15 | R41S | -0.108 ± 0.039
16 | L21D | -1.05 ± 0.16
17 | R22I | -0.026 ± 0.067
18 | N15G | 0.065 ± 0.031
19 | V55L | -0.292 ± 0.042
20 | L21W | -1.09 ± 0.11
21 | S33P | 0.006 ± 0.061
22 | I29L | -0.008 ± 0.03
23 | T56A | 0.033 ± 0.038
24 | N53A | -0.005 ± 0.044

Row | Variant | abundance fitness
25 | D10C | -0.783 ± 0.37
26 | K4Y | -0.285 ± 0.06
27 | S33V | -0.054 ± 0.039
28 | F28M | 0.017 ± 0.054
29 | A7M | -0.837 ± 0.059
30 | Y54Q | -0.153 ± 0.066
31 | M12S | 0.007 ± 0.037
32 | P51A | -0.216 ± 0.049
33 | W38N | -0.098 ± 0.056
34 | E26Q | -0.079 ± 0.061
35 | P36N | -0.075 ± 0.071
36 | E31R | -0.028 ± 0.032
37 | E32S | -0.018 ± 0.046
38 | Y49A | -0.037 ± 0.049
39 | I29E | -0.58 ± 0.057
40 | R39H | -0.116 ± 0.11
41 | M14P | -0.002 ± 0.049
42 | N44I | 0.036 ± 0.099
43 | N34G | 0.07 ± 0.037
44 | N15F | -0.176 ± 0.045
45 | T56R | 0.012 ± 0.037
46 | W37Q | 0.021 ± 0.058
47 | L21R | -0.998 ± 0.069
48 | G48I | -1.13 ± 0.18

Row | Variant | abundance fitness
49 | A58K | -0.005 ± 0.086
50 | E32Q | 0.028 ± 0.075
51 | Q46C | 0.029 ± 0.055
52 | E47M | -0.156 ± 0.05
53 | D25R | -0.068 ± 0.033
54 | E32Y | -0.083 ± 0.061
55 | D25K | -0.067 ± 0.045
56 | K43F | -0.11 ± 0.072
57 | L19V | -0.314 ± 0.034
58 | E26P | -0.041 ± 0.051
59 | L19T | -0.75 ± 0.046
60 | L30W | -0.147 ± 0.036
61 | E57V | 0.03 ± 0.044
62 | E1N | -0.012 ± 0.14
63 | Y9F | 0.012 ± 0.05
64 | L30Y | -0.056 ± 0.061
65 | N53Y | -0.202 ± 0.071
66 | M14Q | 0.038 ± 0.064
67 | E26S | 0 ± 0.037
68 | Q46Y | -0.127 ± 0.087
69 | G48R | -0.827 ± 0.052
70 | V5F | -0.052 ± 0.046
71 | A40V | -0.047 ± 0.04
72 | N53S | -0.006 ± 0.04

Row | Variant | abundance fitness
73 | G48N | -0.97 ± 0.17
74 | S33K | 0.009 ± 0.079
75 | R41T | -0.097 ± 0.04
76 | L30Q | -0.159 ± 0.052
77 | L2G | -0.018 ± 0.039
78 | W38D | -0.157 ± 0.093
79 | Q46L | -0.014 ± 0.031
80 | S52F | -0.108 ± 0.049
81 | V55Q | -0.945 ± 0.16
82 | N17H | 0.03 ± 0.068
83 | L8D | -0.137 ± 0.055
84 | E57Q | -0.024 ± 0.043
85 | E1P | -0.305 ± 0.16
86 | G24K | -0.302 ± 0.065
87 | L35H | -0.002 ± 0.079
88 | A58Y | -0.016 ± 0.075
89 | A16H | -0.026 ± 0.074
90 | D25Q | -0.013 ± 0.049
91 | M14A | 0.051 ± 0.039
92 | E32V | 0.014 ± 0.053
93 | N15I | -0.079 ± 0.054
94 | S52A | -0.009 ± 0.047
95 | E47T | -0.061 ± 0.042
96 | G48D | -0.791 ± 0.11

Row | Variant | abundance fitness
97 | M14W | -0.129 ± 0.042
98 | Q46G | -0.036 ± 0.045
99 | T56F | -0.169 ± 0.068
100 | E31S | 0.05 ± 0.031
101 | K23L | -0.181 ± 0.033
102 | K43G | 0.004 ± 0.029
103 | F28T | -0.02 ± 0.045
104 | W37G | -0.134 ± 0.036
105 | D18I | -0.033 ± 0.077
106 | Q46M | -0.053 ± 0.044
107 | E59P | -0.025 ± 0.1
108 | M14Y | -0.15 ± 0.12
109 | W37F | -0.011 ± 0.051
110 | W37V | 0.013 ± 0.037
111 | N44A | -0.041 ± 0.055
112 | R22C | -0.004 ± 0.049
113 | L2P | -0.136 ± 0.059
114 | L19E | -0.888 ± 0.081
115 | P13E | -0.343 ± 0.06
116 | Y11T | -0.182 ± 0.058
117 | L30C | -0.207 ± 0.061
118 | Y11N | -0.383 ± 0.075
119 | P13A | -0.082 ± 0.046
120 | S52R | -0.008 ± 0.038

Row | Variant | abundance fitness
121 | G24M | -0.223 ± 0.045
122 | D18T | -0.034 ± 0.043
123 | I29K | -0.241 ± 0.054
124 | D25A | -0.046 ± 0.036
125 | K43T | -0.016 ± 0.049
126 | K43A | 0.031 ± 0.038
127 | P51N | -0.102 ± 0.084
128 | E47K | -0.107 ± 0.061
129 | Q46N | 0.007 ± 0.075
130 | I50V | -0.014 ± 0.038
131 | M12G | -0.136 ± 0.036
132 | L19H | -0.703 ± 0.093
133 | K4I | -0.033 ± 0.098
134 | Y27G | -0.745 ± 0.056
135 | L30T | -0.03 ± 0.053
136 | W38G | -0.22 ± 0.043
137 | A58Q | -0.072 ± 0.077
138 | K23C | -0.037 ± 0.061
139 | N53V | -0.004 ± 0.038
140 | Y49W | -0.026 ± 0.047
141 | P36V | -0.077 ± 0.055
142 | N34S | 0.033 ± 0.043
143 | G48F | -0.725 ± 0.066
144 | A7S | -0.142 ± 0.034

Row | Variant | abundance fitness
145 | V55D | -0.891 ± 0.11
146 | E26F | -0.024 ± 0.054
147 | N44F | -0.026 ± 0.051
148 | F28I | -0.021 ± 0.052
149 | Q46T | -0.048 ± 0.052
150 | E59L | -0.097 ± 0.06
151 | V55M | -0.284 ± 0.079
152 | P36R | -0.029 ± 0.032
153 | Y11F | 0.005 ± 0.05
154 | L8E | -0.094 ± 0.035
155 | K23T | -0.112 ± 0.061
156 | Y27L | -0.053 ± 0.03
157 | L2V | -0.116 ± 0.036
158 | A16F | -0.18 ± 0.053
159 | V55R | -0.905 ± 0.063
160 | L35S | -0.041 ± 0.037
161 | F28H | -0.07 ± 0.13
162 | K3Q | -0.293 ± 0.067
163 | K3M | 0 ± 0.05
164 | K43D | -0.094 ± 0.057
165 | P36I | -0.294 ± 0.29
166 | D42R | -0.673 ± 0.063
167 | D42T | -0.065 ± 0.05
